Laboratory results: patent publication US11156615B2 (priority 2015, dated 2021)
Read-outs that look alike come from different tables or passages of the source.

How the values were obtained:
[1] = Thermostability: mid-point thermal denaturation temperature (Tm) from temperature-dependent fluorescence (Roche LightCycler); format: physicochemical; conditions: for apoTm: Badan conjugate, apo-protein
Method in brief: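 Unfolding tracked by SYPRO binding to denatured protein, fluorescence at 488 nm/510 nm recorded on a LightCycler as temperature rose in 1 K steps. Tm taken as denaturation mid-point, for protein in solution or immobilized on Ni-NTA or NHS-agarose beads.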

[2] = format: physicochemical
Source text: (§1) Panels A-C: ttGBP182C.2.0-Imm0; Panels D-F: ttGBP182C.2.0-Imm1 (see FIG. 13). (A) Solution (Tm=347.6K). (B) Immobilized on Nickel-nitriloacetic acid (Ni-NTA) beads (Tm=346.7K). (C) Reconstituted, desiccated Ni-NTA beads (Tm=347.6K). (D) Fluorescence response of ttGGBP5.2 Imm1 immobilized on NHS-functionalized agarose beads. Data was collected on a Roche LightCycler real-time PCS instrument, recording emission intensities at 488 nm and 510 nm as a function of temperature in a 384-well microtiter plate. […] Temperature melts of twelve different wells. Apo protein thermostability as reported by the denaturation mid-point temperature is 349 K, similar to the protein free in solution. […] (F) Representative Langmuir ligand-binding curve extracted from the three-dimensional data.
(§2) Site-specific immobilization minimizes perturbation of the sensing mechanism. […] Similarly, hexa-lysine fusion domains were immobilized on agarose beads derivatized with N-hydroxysuccinimide, and the QNK- or βZif-fusion on iodacetyl-derivatized beads.

[3] = Glucose binding: isothermal fluorescence titrations, ratiometric (appKd) and monochromatic (trueKd) fits; parameters: key to Glucose appKd / Glucose trueKd: nb, no bonding; conditions: Badan conjugate, room temperature
Source text: 2 For a single glucose-binding site, the fractional saturation is given by
[formula] where ^apoIλ2 and ^satIλ2 are the emission intensities of the monochromatic signal at wavelength λ2 of the ligand-free and ligand-bound protein, respectively.

[4] = Glucose-dependent fluorescence emission intensity spectra of conjugates (Nanodrop3300); format: biochemical; conditions: Nanodrop3300
Source text: Semi-synthetic FRSs were engineered by site-specifically attaching thiol-reactive, environmentally sensitive fluorophores that respond to ligand-mediated conformational changes. Identification of FRS candidates that are useful for sensing applications comprises three steps: • 1. Cysteine scan. Mutant glucose-binding proteins containing single cysteines are constructed for site-specific attachment of thiol-reactive fluorophores. […] Candidate positions fall into three classes: endosteric, replacing a residue that contacts the ligand directly; peristeric, located at the rim of the binding site; allosteric (Marvin et al. 1997 Proc Natl Acad Sci USA, 94, 4366-71; Marvin 1998 J Am Chem Soc, 120, 7-11), located outside the binding site at sites that undergo local structural changes in concert with the hinge-bending motion. • 2. Fluorophore screening. Thiol-reactive, environmentally sensitive fluorophores are attached to each cysteine mutant prepared in step 1. • 3. Evaluation of the glucose-mediated change of all the fluorescent conjugates prepared in step 2. Responses to ligand binding in which there is both a change in fluorescence emission intensity and spectral shape was essential for chemometric applications, because such changes enable ratiometric measurements. Changes in spectral shape typically are accompanied by a shift in the wavelength of the emission intensity maxima. Three classes of fluorescent responses are possible: • i. No response. • ii. Monochromatic response (emission intensity increases or decreases without a change in spectral shape) • iii.

[5] = Galactose binding: isothermal fluorescence titrations of conjugates; parameters: key to Galactose trueKd: nb, no bonding; conditions: Badan conjugate; for Galactose trueKd / Kd: monochromatic titration curves, room temperature; for S, selectivity = trueKd(galactose)/trueKd(glucose): S > 1, selective for glucose; for Kd: read-out: Galactose trueKd
[6] = Glucose titration of bead-immobilized sensor; format: binding; conditions: read-out: Kd (glucose); 25° C.; immobilized on NHS-functionalized agarose beads
Source text: as §1
Data were highly precise, being reproducible <0.2% coefficient of variance.
as §2

[7] = Acrylodan conjugate of ttGGBP.17C mutant
[8] = read-out: Glucose appKd, dichromatic ratiometry
[9] = read-out: Glucose trueKd, monochromatic titration curves
[10] = Badan conjugate of ttGGBP.17C mutant

B1: ttGBP182C.2.0-Imm0: ttGGBP182C.2.0 immobilization fusion construct Imm0 (SEQ ID NO: 173), Acrylodan labelled (conjugate)
chain: MKQLNIGVAIYKFDDTFMTGVRNAMTAEAQGKAKLNMVDSQNSQPTQNDQVDLFITKKMNALAINPVDRTAAGTIIDKAKQANIPVVFFNKEPLPEDMKKWDKVYYVGAKAEQSGILQGQIMADYWKAHPEADKNHDGVMQYVMLMGEPGHQDAILRTQYSIQTVKDAGIKVQELAKDYANCDRVTAHDKMAAWLSSFGDKIEAVFANNDDMALGAIEALKSAGYFTGNKYIPVVGVDATAPGIQAIKDGTLLGTVLNDAKNQAKATFNIAYELAQGITPTKDNIGYDITDGKYVWIPYKKITKDNISDAEQGGSHHHHHH
modifications: Acrylodan label; ttGGBP182C.2.0_Imm0
- Tm ([1]; solution (FIG. 14A)): 74.5 °C
- Tm ([2]; immobilized on Ni-NTA beads (FIG. 14B)): 73.6 °C
- Tm ([2]; reconstituted, desiccated Ni-NTA beads (FIG. 14C)): 74.5 °C

B2: ttGGBP17C.20: affinity-tuning mutant, 17C background, SEQ ID NO: 78 (protein)
chain: MKQLNIGVAIYKFDDTCMTGVRNAMTAEAQGKAKLNMVDSQNSQPTQNDQVDLFITKKMNALAINPVDRTAAGTIIDKAKQANIPVVFFNREPLPEDMKKWDKVYYVGAKAEQSGILQGQIMADYWKAHPEADKNHDGVMQYVMLMGQPGHQDAILRTQYSIQTVKDAGIKVQELAKDYANWDRVTAHDKMAAWLSSFGDKIEAVFANNDDMALGAIEALKSAGYFTGNKYIPVVGVDATAPGIQAIKDGTLLGTVLSDAKNQAKATFNIAYELAQGITPTKDNIGYDITDGKYVWIPYKKITKDNISDAEQGGSHHHHHH
modifications: ttGGBP17C.20 (affinity-tuning mutant, 17C background (Table 6) with signal peptide replaced with M and GGSHHHHHH at C-terminus)
- apoTm [1]: 344 K
- Glucose appKd ([3]; dichromatic ratiometry): nb^e
- Glucose trueKd ([3]; monochromatic titration curves): nb^e
- Type of fluorescence response to glucose [4, 7]: d (d, intensity decrease only)
- Galactose trueKd [5]: nb^e

B3: ttGGBP17C.26: affinity-tuning mutant, 17C background, SEQ ID NO: 84 (protein)
chain: MKQLNIGVAIYKFDDTCMTGVRNAMTAEAQGKAKLNMVDSQNSQPTQNDQVDLFITKKMNALAINPVDRTAAGTIIDKAKQANIPVVFFNREPLPEDMKKWDKVYYVGAKAEQSGILQGQIMADYWKAHPEADKNHDGVMQYVMLMGQPGHQDAILRTQYSIQTVKDAGIKVQELAKDYANWDRVTAHDKMAAWLSSFGDKIEAVFANNDDMALGAIEALKSAGYFTGNKYIPVVGVDATAPGIQAIKDGTLLGTVLNDWKNQAKATFNIAYELAQGITPTKDNIGYDITDGKYVWIPYKKITKDNISDAEQGGSHHHHHH
modifications: ttGGBP17C.26 (affinity-tuning mutant, 17C background (Table 6) with signal peptide replaced with M and GGSHHHHHH at C-terminus)
- apoTm [1]: 346 K
- Kd [3, 8]: 0.9 mM
- Kd [3, 9]: 0.9 mM
- Type of fluorescence response to glucose [4, 7]: i (i, intensity increase only)
- Type of fluorescence response to glucose [4, 10]: r(h) (r(h), ratiometric (hypsochromic shift))
- S, selectivity = trueKd(galactose)/trueKd(glucose) [5]: 16
- Kd [5]: 14 mM

B4: ttGGBP17C.28: affinity-tuning mutant, 17C background, SEQ ID NO: 86 (protein)
chain: MKQLNIGVAIYKFDDTCMTGVRNAMTAEAQGKAKLNMVDSQNSQPTQNDQVDLFITKKMNALAINPVDRTAAGTIIDKAKQANIPVVFFNREPLPEDMKKWDKVYYVGAKAEQSGILQGQIMADYWKAHPEADKNHDGVMQYVMLMGQPGHQDAILRTQYSIQTVKDAGIKVQELAKDYANWDRVTAHDKMAAWLSSFGDKIEAVFANNDDMALGAIEALKSAGYFTGNKYIPVVGVDATAPGIQAIKDGTLLGTVLNDYKNQAKATFNIAYELAQGITPTKDNIGYDITDGKYVWIPYKKITKDNISDAEQGGSHHHHHH
modifications: ttGGBP17C.28 (affinity-tuning mutant, 17C background (Table 6) with signal peptide replaced with M and GGSHHHHHH at C-terminus)
- apoTm [1]: 346 K
- Kd [3, 8]: 0.06 mM
- Kd [3, 9]: 0.07 mM
- Type of fluorescence response to glucose [4, 10]: i (i, intensity increase only)
- S, selectivity = trueKd(galactose)/trueKd(glucose) [5]: 37
- Kd [5]: 2.6 mM

B5: ttGGBP17C.27: affinity-tuning mutant, 17C background, SEQ ID NO: 85 (protein)
chain: MKQLNIGVAIYKFDDTCMTGVRNAMTAEAQGKAKLNMVDSQNSQPTQNDQVDLFITKKMNALAINPVDRTAAGTIIDKAKQANIPVVFFNREPLPEDMKKWDKVYYVGAKAEQSGILQGQIMADYWKAHPEADKNHDGVMQYVMLMGQPGHQDAILRTQYSIQTVKDAGIKVQELAKDYANWDRVTAHDKMAAWLSSFGDKIEAVFANNDDMALGAIEALKSAGYFTGNKYIPVVGVDATAPGIQAIKDGTLLGTVLNDFKNQAKATFNIAYELAQGITPTKDNIGYDITDGKYVWIPYKKITKDNISDAEQGGSHHHHHH
modifications: ttGGBP17C.27 (affinity-tuning mutant, 17C background (Table 6) with signal peptide replaced with M and GGSHHHHHH at C-terminus)
- apoTm [1]: 346 K
- Kd [3, 8]: 0.2 mM
- Kd [3, 9]: 0.3 mM
- Type of fluorescence response to glucose [4, 10]: i (i, intensity increase only)
- S, selectivity = trueKd(galactose)/trueKd(glucose) [5]: 33
- Kd [5]: 8.8 mM

B6: ttGGBP17C.23: affinity-tuning mutant, 17C background, SEQ ID NO: 81 (protein)
chain: MKQLNIGVAIYKFDDTCMTGVRNAMTAEAQGKAKLNMVDSQNSQPTQNDQVDLFITKKMNALAINPVDRTAAGTIIDKAKQANIPVVFFNREPLPEDMKKWDKVYYVGAKAEQSGILQGQIMADYWKAHPEADKNHDGVMQYVMLMGQPGHQDAILRTQYSIQTVKDAGIKVQELAKDYANWDRVTAHDKMAAWLSSFGDKIEAVFANNDDMALGAIEALKSAGYFTGNKYIPVVGVDATAPGIQAIKDGTLLGTVLNDQKNQAKATFNIAYELAQGITPTKDNIGYDITDGKYVWIPYKKITKDNISDAEQGGSHHHHHH
modifications: ttGGBP17C.23 (affinity-tuning mutant, 17C background (Table 6) with signal peptide replaced with M and GGSHHHHHH at C-terminus)
- apoTm [1]: 344 K
- Kd [3, 8]: 15 mM
- Kd [3, 9]: 18 mM
- Type of fluorescence response to glucose [4, 7]: i (i, intensity increase only)
- Type of fluorescence response to glucose [4, 10]: i (i, intensity increase only)
- Galactose trueKd [5]: nb^c

B7: ttGGBP5.2 Imm1: ttGGBP182C.2.0 immobilization fusion construct Imm1 (SEQ ID NO: 175), labelled, on NHS-functionalized agarose beads (conjugate)
chain: MKQLNIGVAIYKFDDTFMTGVRNAMTAEAQGKAKLNMVDSQNSQPTQNDQVDLFITKKMNALAINPVDRTAAGTIIDKAKQANIPVVFFNKEPLPEDMKKWDKVYYVGAKAEQSGILQGQIMADYWKAHPEADKNHDGVMQYVMLMGEPGHQDAILRTQYSIQTVKDAGIKVQELAKDYANCDRVTAHDKMAAWLSSFGDKIEAVFANNDDMALGAIEALKSAGYFTGNKYIPVVGVDATAPGIQAIKDGTLLGTVLNDAKNQAKATFNIAYELAQGITPTKDNIGYDITDGKYVWIPYKKITKDNISDAEQGGSGGSKKKKKKGGSHHHHHH
modifications: fluorescent label; immobilized on NHS-agarose beads; ttGGBP182C.2.0_Imm1
- denaturation mid-point temperature (apo protein thermostability) [2]: 349 K
- Kd [6]: 4.8 mM
